Results: patent US20110105397A1, “METHOD FOR TREATING HEART FAILURE WITH STRESSCOPIN-LIKE PEPTIDES” (priority 2009, published 2011)
Where no end group is shown, it is not given here. The star is where a group is joined. Succinimide(1-Et,3-yl) = CCN1C(=O)CC(*)C1=O

Molecular target: T1, human corticotrophin releasing hormone receptor type 2 (CRHR2) (human, UniProt Q13324 1-411)
T1 sequence (looked up): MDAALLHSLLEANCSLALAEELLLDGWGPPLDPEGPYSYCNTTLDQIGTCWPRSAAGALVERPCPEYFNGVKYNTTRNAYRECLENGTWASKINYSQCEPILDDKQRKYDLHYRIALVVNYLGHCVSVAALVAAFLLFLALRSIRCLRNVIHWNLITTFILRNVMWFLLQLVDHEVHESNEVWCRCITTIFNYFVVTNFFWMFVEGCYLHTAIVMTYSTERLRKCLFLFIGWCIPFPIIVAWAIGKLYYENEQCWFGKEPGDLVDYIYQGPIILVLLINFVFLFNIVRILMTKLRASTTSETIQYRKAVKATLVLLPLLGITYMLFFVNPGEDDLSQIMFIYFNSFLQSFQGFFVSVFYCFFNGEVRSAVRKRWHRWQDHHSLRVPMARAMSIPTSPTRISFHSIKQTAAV
Experiment: cell-based or functional assay

B1: Cys-variant of stresscopin peptide with N-Ethylsuccinimide (NES) reactive group SEQ ID NO: 48 (peptide)
peptide: TKFTLSLDVPTNIMNLLFNIAKAKNC(Succinimide(1-Et,3-yl))RAQAAANAHLMAQI-NH2
modifications: N-terminus assumed
SMILES: CC[C@H](C)[C@H](NC(=O)[C@H](CCC(N)=O)NC(=O)[C@H](C)NC(=O)[C@H](CCSC)NC(=O)[C@H](CC(C)C)NC(=O)[C@H](Cc1c[nH]cn1)NC(=O)[C@H](C)NC(=O)[C@H](CC(N)=O)NC(=O)[C@H](C)NC(=O)[C@H](C)NC(=O)[C@H](C)NC(=O)[C@H](CCC(N)=O)NC(=O)[C@H](C)NC(=O)[C@H](CCCNC(=N)N)NC(=O)[C@H](CSC1CC(=O)N(CC)C1=O)NC(=O)[C@H](CC(N)=O)NC(=O)[C@H](CCCCN)NC(=O)[C@H](C)NC(=O)[C@H](CCCCN)NC(=O)[C@H](C)NC(=O)[C@@H](NC(=O)[C@H](CC(N)=O)NC(=O)[C@H](Cc1ccccc1)NC(=O)[C@H](CC(C)C)NC(=O)[C@H](CC(C)C)NC(=O)[C@H](CC(N)=O)NC(=O)[C@H](CCSC)NC(=O)[C@@H](NC(=O)[C@H](CC(N)=O)NC(=O)[C@@H](NC(=O)[C@@H]1CCCN1C(=O)[C@@H](NC(=O)[C@H](CC(=O)O)NC(=O)[C@H](CC(C)C)NC(=O)[C@H](CO)NC(=O)[C@H](CC(C)C)NC(=O)[C@@H](NC(=O)[C@H](Cc1ccccc1)NC(=O)[C@H](CCCCN)NC(=O)[C@@H](N)[C@@H](C)O)[C@@H](C)O)C(C)C)[C@@H](C)O)[C@@H](C)CC)[C@@H](C)CC)C(N)=O
Log DR: 0.03 log10 | pA50: 9.44 -log10(M)

B2: Cys-variant of stresscopin peptide with N-Ethylsuccinimide (NES) reactive group SEQ ID NO: 49 (peptide)
peptide: TKFTLSLDVPTNIMNLLFNIAKAKC(Succinimide(1-Et,3-yl))LRAQAAANAHLMAQI-NH2
modifications: N-terminus assumed
SMILES: CC[C@H](C)[C@H](NC(=O)[C@H](CCC(N)=O)NC(=O)[C@H](C)NC(=O)[C@H](CCSC)NC(=O)[C@H](CC(C)C)NC(=O)[C@H](Cc1c[nH]cn1)NC(=O)[C@H](C)NC(=O)[C@H](CC(N)=O)NC(=O)[C@H](C)NC(=O)[C@H](C)NC(=O)[C@H](C)NC(=O)[C@H](CCC(N)=O)NC(=O)[C@H](C)NC(=O)[C@H](CCCNC(=N)N)NC(=O)[C@H](CC(C)C)NC(=O)[C@H](CSC1CC(=O)N(CC)C1=O)NC(=O)[C@H](CCCCN)NC(=O)[C@H](C)NC(=O)[C@H](CCCCN)NC(=O)[C@H](C)NC(=O)[C@@H](NC(=O)[C@H](CC(N)=O)NC(=O)[C@H](Cc1ccccc1)NC(=O)[C@H](CC(C)C)NC(=O)[C@H](CC(C)C)NC(=O)[C@H](CC(N)=O)NC(=O)[C@H](CCSC)NC(=O)[C@@H](NC(=O)[C@H](CC(N)=O)NC(=O)[C@@H](NC(=O)[C@@H]1CCCN1C(=O)[C@@H](NC(=O)[C@H](CC(=O)O)NC(=O)[C@H](CC(C)C)NC(=O)[C@H](CO)NC(=O)[C@H](CC(C)C)NC(=O)[C@@H](NC(=O)[C@H](Cc1ccccc1)NC(=O)[C@H](CCCCN)NC(=O)[C@@H](N)[C@@H](C)O)[C@@H](C)O)C(C)C)[C@@H](C)O)[C@@H](C)CC)[C@@H](C)CC)C(N)=O
Log DR: 0.11 log10 | pA50: 9.36 -log10(M)

B3: Cys-variant of stresscopin peptide with N-Ethylsuccinimide (NES) reactive group SEQ ID NO: 50 (peptide)
peptide: TKFTLSLDVPTNIMNLLFNIAKAC(Succinimide(1-Et,3-yl))NLRAQAAANAHLMAQI-NH2
modifications: N-terminus assumed
SMILES: CC[C@H](C)[C@H](NC(=O)[C@H](CCC(N)=O)NC(=O)[C@H](C)NC(=O)[C@H](CCSC)NC(=O)[C@H](CC(C)C)NC(=O)[C@H](Cc1c[nH]cn1)NC(=O)[C@H](C)NC(=O)[C@H](CC(N)=O)NC(=O)[C@H](C)NC(=O)[C@H](C)NC(=O)[C@H](C)NC(=O)[C@H](CCC(N)=O)NC(=O)[C@H](C)NC(=O)[C@H](CCCNC(=N)N)NC(=O)[C@H](CC(C)C)NC(=O)[C@H](CC(N)=O)NC(=O)[C@H](CSC1CC(=O)N(CC)C1=O)NC(=O)[C@H](C)NC(=O)[C@H](CCCCN)NC(=O)[C@H](C)NC(=O)[C@@H](NC(=O)[C@H](CC(N)=O)NC(=O)[C@H](Cc1ccccc1)NC(=O)[C@H](CC(C)C)NC(=O)[C@H](CC(C)C)NC(=O)[C@H](CC(N)=O)NC(=O)[C@H](CCSC)NC(=O)[C@@H](NC(=O)[C@H](CC(N)=O)NC(=O)[C@@H](NC(=O)[C@@H]1CCCN1C(=O)[C@@H](NC(=O)[C@H](CC(=O)O)NC(=O)[C@H](CC(C)C)NC(=O)[C@H](CO)NC(=O)[C@H](CC(C)C)NC(=O)[C@@H](NC(=O)[C@H](Cc1ccccc1)NC(=O)[C@H](CCCCN)NC(=O)[C@@H](N)[C@@H](C)O)[C@@H](C)O)C(C)C)[C@@H](C)O)[C@@H](C)CC)[C@@H](C)CC)C(N)=O
Log DR: -0.01 log10 | pA50: 9.48 -log10(M)

B4: Cys-variant of stresscopin peptide with N-Ethylsuccinimide (NES) reactive group SEQ ID NO: 51 (peptide)
peptide: TKFTLSLDVPTNIMNLLFNC(Succinimide(1-Et,3-yl))AKAKNLRAQAAANAHLMAQI-NH2
modifications: N-terminus assumed
SMILES: CC[C@H](C)[C@H](NC(=O)[C@H](CCC(N)=O)NC(=O)[C@H](C)NC(=O)[C@H](CCSC)NC(=O)[C@H](CC(C)C)NC(=O)[C@H](Cc1c[nH]cn1)NC(=O)[C@H](C)NC(=O)[C@H](CC(N)=O)NC(=O)[C@H](C)NC(=O)[C@H](C)NC(=O)[C@H](C)NC(=O)[C@H](CCC(N)=O)NC(=O)[C@H](C)NC(=O)[C@H](CCCNC(=N)N)NC(=O)[C@H](CC(C)C)NC(=O)[C@H](CC(N)=O)NC(=O)[C@H](CCCCN)NC(=O)[C@H](C)NC(=O)[C@H](CCCCN)NC(=O)[C@H](C)NC(=O)[C@H](CSC1CC(=O)N(CC)C1=O)NC(=O)[C@H](CC(N)=O)NC(=O)[C@H](Cc1ccccc1)NC(=O)[C@H](CC(C)C)NC(=O)[C@H](CC(C)C)NC(=O)[C@H](CC(N)=O)NC(=O)[C@H](CCSC)NC(=O)[C@@H](NC(=O)[C@H](CC(N)=O)NC(=O)[C@@H](NC(=O)[C@@H]1CCCN1C(=O)[C@@H](NC(=O)[C@H](CC(=O)O)NC(=O)[C@H](CC(C)C)NC(=O)[C@H](CO)NC(=O)[C@H](CC(C)C)NC(=O)[C@@H](NC(=O)[C@H](Cc1ccccc1)NC(=O)[C@H](CCCCN)NC(=O)[C@@H](N)[C@@H](C)O)[C@@H](C)O)C(C)C)[C@@H](C)O)[C@@H](C)CC)C(N)=O
Log DR: 0.68 log10 | pA50: 8.79 -log10(M)

B5: Cys-variant of stresscopin peptide with N-Ethylsuccinimide (NES) reactive group SEQ ID NO: 52 (peptide)
peptide: TKFTLSLDVPTNIMNLLFC(Succinimide(1-Et,3-yl))IAKAKNLRAQAAANAHLMAQI-NH2
modifications: N-terminus assumed
SMILES: CC[C@H](C)[C@H](NC(=O)[C@H](CCC(N)=O)NC(=O)[C@H](C)NC(=O)[C@H](CCSC)NC(=O)[C@H](CC(C)C)NC(=O)[C@H](Cc1c[nH]cn1)NC(=O)[C@H](C)NC(=O)[C@H](CC(N)=O)NC(=O)[C@H](C)NC(=O)[C@H](C)NC(=O)[C@H](C)NC(=O)[C@H](CCC(N)=O)NC(=O)[C@H](C)NC(=O)[C@H](CCCNC(=N)N)NC(=O)[C@H](CC(C)C)NC(=O)[C@H](CC(N)=O)NC(=O)[C@H](CCCCN)NC(=O)[C@H](C)NC(=O)[C@H](CCCCN)NC(=O)[C@H](C)NC(=O)[C@@H](NC(=O)[C@H](CSC1CC(=O)N(CC)C1=O)NC(=O)[C@H](Cc1ccccc1)NC(=O)[C@H](CC(C)C)NC(=O)[C@H](CC(C)C)NC(=O)[C@H](CC(N)=O)NC(=O)[C@H](CCSC)NC(=O)[C@@H](NC(=O)[C@H](CC(N)=O)NC(=O)[C@@H](NC(=O)[C@@H]1CCCN1C(=O)[C@@H](NC(=O)[C@H](CC(=O)O)NC(=O)[C@H](CC(C)C)NC(=O)[C@H](CO)NC(=O)[C@H](CC(C)C)NC(=O)[C@@H](NC(=O)[C@H](Cc1ccccc1)NC(=O)[C@H](CCCCN)NC(=O)[C@@H](N)[C@@H](C)O)[C@@H](C)O)C(C)C)[C@@H](C)O)[C@@H](C)CC)[C@@H](C)CC)C(N)=O
Log DR: 0.05 log10 | pA50: 9.42 -log10(M)

B6: Cys-variant of stresscopin peptide with N-Ethylsuccinimide (NES) reactive group SEQ ID NO: 53 (peptide)
peptide: TKFTLSLDVPTNIMNLC(Succinimide(1-Et,3-yl))FNIAKAKNLRAQAAANAHLMAQI-NH2
modifications: N-terminus assumed
SMILES: CC[C@H](C)[C@H](NC(=O)[C@H](CCC(N)=O)NC(=O)[C@H](C)NC(=O)[C@H](CCSC)NC(=O)[C@H](CC(C)C)NC(=O)[C@H](Cc1c[nH]cn1)NC(=O)[C@H](C)NC(=O)[C@H](CC(N)=O)NC(=O)[C@H](C)NC(=O)[C@H](C)NC(=O)[C@H](C)NC(=O)[C@H](CCC(N)=O)NC(=O)[C@H](C)NC(=O)[C@H](CCCNC(=N)N)NC(=O)[C@H](CC(C)C)NC(=O)[C@H](CC(N)=O)NC(=O)[C@H](CCCCN)NC(=O)[C@H](C)NC(=O)[C@H](CCCCN)NC(=O)[C@H](C)NC(=O)[C@@H](NC(=O)[C@H](CC(N)=O)NC(=O)[C@H](Cc1ccccc1)NC(=O)[C@H](CSC1CC(=O)N(CC)C1=O)NC(=O)[C@H](CC(C)C)NC(=O)[C@H](CC(N)=O)NC(=O)[C@H](CCSC)NC(=O)[C@@H](NC(=O)[C@H](CC(N)=O)NC(=O)[C@@H](NC(=O)[C@@H]1CCCN1C(=O)[C@@H](NC(=O)[C@H](CC(=O)O)NC(=O)[C@H](CC(C)C)NC(=O)[C@H](CO)NC(=O)[C@H](CC(C)C)NC(=O)[C@@H](NC(=O)[C@H](Cc1ccccc1)NC(=O)[C@H](CCCCN)NC(=O)[C@@H](N)[C@@H](C)O)[C@@H](C)O)C(C)C)[C@@H](C)O)[C@@H](C)CC)[C@@H](C)CC)C(N)=O
Log DR: ~2.22 log10 | pA50: ~7.25 -log10(M)
